Measurements published in patent US20160237119A1 (UNIVERSITY OF TOKYO, published 2016).
Bridges are numbered along the chain shown (N, C = ends). Where no end group is shown, it is not given here. fluorescein = fluorescein fluorescent label attached to the peptide

Biological target: T1, human c-Met (human, UniProt P08581 25-1390)
T1 construct: whole, on cells; Endogenous receptor on human cell lines; alpha and beta sub-units come from one precursor; also called c-Met protein; HGF receptor
Test: confocal fluorescence microscopy on human c-Met expressing SNU-638 cells
Method: To human c-Met expressing cells (human SNU-638 cells) or human c-Met non-expressing cells (human SNU-216 cells) cultured on a glass-bottom dish were added a RPMI1640 medium containing 1 mg/L of Hoechst 33342, a nuclear staining reagent, an anti-human c-Met antibody, and 1 uM of L5-2-fluorescein, D4-3-fluorescein, D5-4-fluorescein, D4-3NMe-fluorescein, or D4-3scr-fluorescein and the resulting mixture was incubated in 5% CO₂ at 37° C. for 5 minutes. Then, a RPMI1640 medium containing an HRP-anti-rat secondary antibody and 1 μM of L5-2-fluorescein, D4-3-fluorescein, D5-4-fluorescein, D4-3NMe-fluorescein, or D4-3scr-fluorescein was added and the resulting mixture was incubated in 5% CO₂ at 37° C. for 5 minutes.
The cells were washed three times with a D-MEM medium and were microscopically observed in a new RPMI1640 medium. The localization of the peptide was observed using a confocal fluorescence microscope for the microscopic observation.

T1 sequence (P08581 25-1390): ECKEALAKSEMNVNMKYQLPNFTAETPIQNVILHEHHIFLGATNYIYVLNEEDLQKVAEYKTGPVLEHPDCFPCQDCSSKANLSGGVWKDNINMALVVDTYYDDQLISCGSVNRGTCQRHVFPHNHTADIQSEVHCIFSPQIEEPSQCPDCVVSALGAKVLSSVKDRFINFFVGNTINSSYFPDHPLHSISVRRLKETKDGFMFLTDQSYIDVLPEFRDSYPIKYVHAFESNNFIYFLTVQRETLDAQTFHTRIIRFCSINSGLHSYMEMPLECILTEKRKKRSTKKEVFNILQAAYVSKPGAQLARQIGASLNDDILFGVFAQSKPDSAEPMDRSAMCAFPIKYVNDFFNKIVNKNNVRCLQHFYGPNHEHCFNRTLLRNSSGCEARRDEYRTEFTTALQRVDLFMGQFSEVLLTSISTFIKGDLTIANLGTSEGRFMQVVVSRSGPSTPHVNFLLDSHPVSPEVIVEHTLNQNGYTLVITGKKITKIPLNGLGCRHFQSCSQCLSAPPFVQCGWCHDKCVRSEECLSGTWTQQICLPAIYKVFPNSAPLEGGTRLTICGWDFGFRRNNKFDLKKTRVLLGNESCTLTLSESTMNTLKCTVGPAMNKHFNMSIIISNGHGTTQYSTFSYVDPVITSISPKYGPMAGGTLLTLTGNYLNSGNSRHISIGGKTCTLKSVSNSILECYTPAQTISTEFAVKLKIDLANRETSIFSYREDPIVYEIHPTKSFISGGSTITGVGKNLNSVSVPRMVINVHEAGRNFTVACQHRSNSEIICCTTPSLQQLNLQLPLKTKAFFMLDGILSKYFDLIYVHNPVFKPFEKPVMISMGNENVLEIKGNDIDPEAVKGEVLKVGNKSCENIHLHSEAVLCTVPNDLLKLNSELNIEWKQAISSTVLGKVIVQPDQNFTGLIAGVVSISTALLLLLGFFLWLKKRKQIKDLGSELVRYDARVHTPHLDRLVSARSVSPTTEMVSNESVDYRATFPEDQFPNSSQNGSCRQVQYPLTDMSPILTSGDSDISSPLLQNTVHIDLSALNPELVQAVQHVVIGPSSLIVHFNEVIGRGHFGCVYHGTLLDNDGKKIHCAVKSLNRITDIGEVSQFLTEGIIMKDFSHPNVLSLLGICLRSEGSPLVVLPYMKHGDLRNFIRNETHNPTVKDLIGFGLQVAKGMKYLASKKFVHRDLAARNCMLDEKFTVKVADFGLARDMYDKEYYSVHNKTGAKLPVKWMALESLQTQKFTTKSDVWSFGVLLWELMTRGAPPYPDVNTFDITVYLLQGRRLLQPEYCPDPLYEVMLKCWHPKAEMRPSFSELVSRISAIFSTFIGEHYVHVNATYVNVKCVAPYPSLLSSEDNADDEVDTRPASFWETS

{CH2CO}-YERVNHLFRNQTWDRCGK(fluorescein) (thioether N-16, Negative control) [D4-3scr-fluorescein]
binding result: no binding (tested: 1 uM)
